Results reported in article PMC12363564, “Modulation of the PTPRS proteoglycan switch by antibodies binding to the membrane-proximal fibronectin-type III domain” (The Journal of Biological Chemistry, 2025).

Biological target: T1, C-terminally 6xHis tagged mouse PTPRS (mPTPRS) ECD (Mus musculus, UniProt B0V2N1)
T1 construct: also called mPTPRS ectodomain; PTPRS ectodomain; source: HEK293T, transiently transfected, supernatant; purified (Ni-NTA, HiTrap heparin); not shown: His6, C-terminal, kept
Assay: BLI; data not shown; 9H5 on C-terminally 6xHis tagged mPTPRS ECD immobilised on an anti-6xHis probe
Settings: both partners purified

T1 sequence (B0V2N1 30-1257): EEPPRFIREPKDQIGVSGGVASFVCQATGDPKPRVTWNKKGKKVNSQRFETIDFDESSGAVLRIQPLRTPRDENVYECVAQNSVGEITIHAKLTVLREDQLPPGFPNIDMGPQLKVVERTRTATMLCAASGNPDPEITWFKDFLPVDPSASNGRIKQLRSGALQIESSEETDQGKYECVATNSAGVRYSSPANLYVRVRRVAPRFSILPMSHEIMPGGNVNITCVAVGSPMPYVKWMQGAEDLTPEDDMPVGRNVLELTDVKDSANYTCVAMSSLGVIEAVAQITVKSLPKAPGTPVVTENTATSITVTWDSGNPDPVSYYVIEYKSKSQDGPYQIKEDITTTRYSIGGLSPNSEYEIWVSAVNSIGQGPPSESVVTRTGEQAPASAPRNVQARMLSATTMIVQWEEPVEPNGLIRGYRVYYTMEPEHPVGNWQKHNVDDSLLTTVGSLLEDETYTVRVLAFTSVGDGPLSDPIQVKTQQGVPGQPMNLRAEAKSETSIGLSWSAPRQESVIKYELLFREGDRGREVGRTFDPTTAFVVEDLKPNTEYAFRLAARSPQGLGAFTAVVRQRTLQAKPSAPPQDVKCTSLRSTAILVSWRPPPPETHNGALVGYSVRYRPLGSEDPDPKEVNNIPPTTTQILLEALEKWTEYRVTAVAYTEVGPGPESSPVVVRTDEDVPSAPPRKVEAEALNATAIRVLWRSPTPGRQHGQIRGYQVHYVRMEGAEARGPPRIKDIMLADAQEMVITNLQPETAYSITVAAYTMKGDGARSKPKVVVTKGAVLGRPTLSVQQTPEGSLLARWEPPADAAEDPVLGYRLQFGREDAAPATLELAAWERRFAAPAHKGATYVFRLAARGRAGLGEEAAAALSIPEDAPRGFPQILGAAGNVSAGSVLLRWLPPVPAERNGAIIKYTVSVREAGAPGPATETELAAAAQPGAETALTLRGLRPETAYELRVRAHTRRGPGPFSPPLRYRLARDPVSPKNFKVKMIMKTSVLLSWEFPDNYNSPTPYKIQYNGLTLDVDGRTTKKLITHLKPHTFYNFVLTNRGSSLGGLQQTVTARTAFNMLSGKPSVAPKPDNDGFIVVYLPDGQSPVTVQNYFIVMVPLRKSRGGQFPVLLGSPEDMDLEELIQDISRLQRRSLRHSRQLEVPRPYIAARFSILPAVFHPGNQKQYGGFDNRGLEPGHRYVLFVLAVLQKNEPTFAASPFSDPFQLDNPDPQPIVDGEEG

B1: 9H5 (mouse monoclonal antibody, IgG1/κ) (antibody, V domains shown)
VH: QVQLVETGGGLVRPGNSLKLSCVTSGFTFSNYRMHWLRQPPGKRLEWIAVITVKSDNYGANYAESVKGRFTISRDDSKSSVYLQMNRLREEDTATYYCSRSVYYGYVLAFDYWGQGTTLTVSS
VL: DIQMTQTTSSLSASLGDRVTISCRASQDISNYLNWYQQKPDGTVKLLIYYTSRLHSGVPSRFSGSGSGTDYSLTISNLEQEDIATYFCQQGNTLPWTFGGGTKLEIK
notes: VH of 9H5; constant region of the mouse IgG1 heavy chain; VL of 9H5; constant region of the mouse κ light chain; IgG1/κ; source: production contracted to Viva Biotech
binding result: no binding
